Laboratory results reported in patent US20030180744, “High affinity oligonucleotide ligands to growth factors” (GILEAD SCIENCES, INC., published 2003).

Key:
TGFβ1 [1] = target: T1, TGFβ1 (Homo sapiens, UniProt P01137 P01137:279-390); test: filter; 37 C; cell IC50 20 and 157 nM; details: tags: Genentech; biotinylated version used in bead assay; chain copies: 2
TGFβ1 [2] = target: T1, TGFβ1; test: cell_activity; second value 157 nM; details: tags: Genentech or R&D Systems; chain copies: 2;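 note: inhibition of TGFβ1-induced luciferase reporter expression in mink lung epithelial cells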
Protocol: (§1) Mink lung epithelial cells (MLEC) carrying the Pail/luc construct were maintained in DME containing 10% fetal bovine serum and 400 μg/ml G418. MLEC-Pail/luc cells were plated at 3.2×10⁴ cells per well in a 96 well Falcon plate, in 100 μl of DME+10% fetal bovine serum overnight. Media was made from autoclaved water. The cells were washed three times ([…]) in serum free DME plus Solution A (1:1). Solution A is 30 mM Hepes pH 7.6, 10 mM glucose, 3.0 mM KCl, 131 mM NaCl, 1.0 mM disodium phosphate. Samples (100 μl) were added in DME containing 20 mM Hepes pH 7.5, and 0.1% BSA (Fluka, radioimmunoassay grade). All samples were in triplicate. After six hours at 37° C. in a 5% CO₂ incubator the media was removed and cells were washed three times (100 μl each) in cold PBS. Lysis buffer (75 μl) (Analytical Luminescence Laboratory) was added and the plates incubated on ice for 20 min. The plates were sealed and frozen at −80° C. until assayed. Samples (25 μl) were assayed for luciferase activity with the Enhanced Luciferase Assay Kit from Analytical Luminescence Laboratory (San Diego, Calif., USA) according to the manufacturer's instructions using the Berthold Microlumat LB96P luminometer.
(§2) Ligands tested for inhibition of TGFβ1 activity were tested at a minimum of five concentrations. […]

PDGF-BB = PDGF-BB (Homo sapiens, UniProt P01127 P01127:82-190); test: competition; PDGF alpha-receptor PAE cells, 4 C; mitogenic half-maximal 2.5 nM; details: tags: R&D Systems, E. coli; chain copies: B chain dimer; three-way helix junction
TGFβ1 [3] = target: T1, TGFβ1; test: filter; boundary experiment; details: tags: Genentech or R&D Systems; chain copies: 2
TGFβ1 [4] = target: T1, TGFβ1; test: cell_activity; second value 201 nM; details: tags: Genentech or R&D Systems; chain copies: 2;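 note: inhibition of TGFβ1-induced luciferase reporter expression in mink lung epithelial cells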
Protocol: as §1, §2

TGFβ1 [5] = target: T1, TGFβ1; test: cell_activity; second value 112 nM; details: tags: Genentech or R&D Systems; chain copies: 2;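 note: inhibition of TGFβ1-induced luciferase reporter expression in mink lung epithelial cells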
Protocol: as §1, §2

PDGF-AB = PDGF-AB (Homo sapiens, UniProt P04085;P01127 P04085:87-211,P01127:82-190); test: filter; specificity control; random RNA 22.0 nM; details: tags: R&D Systems, E. coli; label: 32P; pseudoknot (predicted)
KGF (rat) [6] = target: T2, KGF (rat) (Rattus norvegicus, UniProt Q02195 Q02195:32-194); test: filter; high affinity component; Kd2 70.0 nM; details: tags: QED Advanced Research Technologies; label: 32P; pseudoknot (predicted)
T2 sequence: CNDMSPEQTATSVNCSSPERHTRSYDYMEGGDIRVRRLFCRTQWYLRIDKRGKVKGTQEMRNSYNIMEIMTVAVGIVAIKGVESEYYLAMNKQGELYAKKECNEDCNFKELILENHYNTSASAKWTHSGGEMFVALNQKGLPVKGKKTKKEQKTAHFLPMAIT

EGF = EGF (Homo sapiens, UniProt P01133 P01133:971-1023); test: filter; specificity control; random RNA 2000 nM; details: tags: Upstate Biotechnology; label: 32P; pseudoknot (predicted)
bFGF = bFGF (Homo sapiens, UniProt P09038 P09038:143-288); test: filter; specificity control; random RNA 0.0375 and 10.3 nM; details: tags: R&D Systems; label: 32P; pseudoknot (predicted)
KGF (rat) [7] = target: T2, KGF (rat); test: cell_activity; Balb/MK DNA synthesis; details: tags: QED Advanced Research Technologies; pseudoknot
Protocol: (§3) Balb/MK cells grown in Low Ca⁺⁺ EMEM with 10% FCS (dialyzed and heat inactivated) and 5 ng/ml rhEGF were trypsinized and resuspended in Low Ca⁺⁺ EMEM with 1% FCS (dialyzed and heat inactivated) and 0.5 ng/ml rhEGF and plated on 96 well fibronectin coated culture plates at 4-6×10⁴ cells per well in 100 μl total volume. Following overnight growth, the medium was replaced with Low Ca⁺⁺ EMEM without FCS or rhEGF and serum starved for about 30 hrs. […] Following over-night incubation, ³H-thymidine was added at 0.2 μCi/well and incubation continued for an additional 7-8 hrs. The extent of ³H-thymidine incorporation was determined by TCA precipitation and filtration through GFC filter disks.

KGF (hKGF) = target: T3, KGF (hKGF) (Homo sapiens, UniProt P21781 P21781:32-194); test: cell_activity; Balb/MK mitogenic assay; details: tags: Upstate Biotechnology; pseudoknot
T3 sequence: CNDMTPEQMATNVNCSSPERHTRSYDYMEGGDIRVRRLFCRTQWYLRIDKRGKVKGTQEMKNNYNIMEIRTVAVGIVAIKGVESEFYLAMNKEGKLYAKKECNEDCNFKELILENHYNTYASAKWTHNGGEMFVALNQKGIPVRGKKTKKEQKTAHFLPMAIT
Protocol: as §3

TGFβ1 [8] = target: T1, TGFβ1; test: filter; specificity control; random RNA 10.4 nM; details: tags: Genentech; biotinylated version used in bead assay; chain copies: 2; label: 32P; pseudoknot (predicted)
TGFβ1 [9] = target: T1, TGFβ1; test: cell_activity; PAI-luciferase MLEC, n=4; details: tags: Genentech or R&D Systems; chain copies: 2;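 note: inhibition of TGFβ1-induced luciferase reporter expression in mink lung epithelial cells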
Protocol: as §1, §2

TGFβ1 [10] = target: T1, TGFβ1; test: filter; second determination 0.2 nM; cell IC50 69-109 nM; details: tags: Genentech; biotinylated version used in bead assay; chain copies: 2
TGFβ1 [11] = target: T1, TGFβ1; test: cell_activity; also 108 and 69 nM; stimulates at low concentration; details: tags: Genentech or R&D Systems; chain copies: 2
Protocol: as §1, §2

T1 sequence (P01137 279-390, one chain of several): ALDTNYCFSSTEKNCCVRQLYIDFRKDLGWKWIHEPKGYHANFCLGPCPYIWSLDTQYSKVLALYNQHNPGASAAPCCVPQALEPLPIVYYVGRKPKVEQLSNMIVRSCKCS
Sequence of EGF (P01133 971-1023, one chain of several): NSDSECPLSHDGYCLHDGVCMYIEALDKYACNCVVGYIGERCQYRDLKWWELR
Sequence of PDGF-AB (P01127 82-190, chain 2 of 2, other chains not shown): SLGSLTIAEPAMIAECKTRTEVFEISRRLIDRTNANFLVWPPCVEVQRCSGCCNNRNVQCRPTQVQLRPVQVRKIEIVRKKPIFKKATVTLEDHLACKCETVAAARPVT
Sequence of PDGF-BB (P01127 82-190, one chain of several): as the sequence (P01127 82-190, chain 2 of 2, other chains not shown) above
Sequence of bFGF (P09038 143-288, one chain of several): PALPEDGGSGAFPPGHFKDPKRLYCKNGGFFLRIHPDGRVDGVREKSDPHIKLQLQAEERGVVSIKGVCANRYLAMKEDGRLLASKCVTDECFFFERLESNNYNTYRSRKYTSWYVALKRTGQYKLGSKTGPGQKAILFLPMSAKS

B1: lib4-32 (ssRNA)
RNA: GGGGGAGAACGCGGAUCCGGCAACCCCAGGCGCAUAGCUUCCGAGUAGACAGGCGGGAGGGGUGGAUGUGGCGUCACGAGGAAGCUUCGCUCUAGAUCUCCCUUUAGUGAGGGUUA
modifications: 2'-NH2 pyrimidines
Kd (TGFβ1 [1]): 0.8 nM
IC50 (TGFβ1 [2]): 20 nM

B2: 36t (ssDNA)
DNA: CACAGGCTACGGCACGTAGAGCATCACCATGATCCTGTGT
modifications: 3'-3' idT
IC50 (PDGF-BB): ~1 nM

B3: lib8-9 boundaries (ssRNA)
RNA: CUUCCGAGUAGACAGGAGGGAGGGGUGGAUGUGGCGUCUACUC
binding result (TGFβ1 [3]): binds

B4: lib2-6-1-81 (ssRNA)
RNA: GGGGGAGAACGCGGAUCCUGUCUCCACCGCCGAUACUGGGGUUCCUGGGGCCCCUCCAUGCAGGAGGGGGGUGGUUCGGAG
modifications: 2'-NH2-U, 2'-F-C
IC50 (TGFβ1 [4]): 298 nM

B5: lib2-6-1 (ssRNA)
RNA: GGGGGAGAACGCGGAUCCUGUCUCCACCGCCGAUACUGGGGUUCCUGGGGCCCCUCCAUGCAGGAGGGGGGUGGUUCGGAGAAAGCUUCGCUCUAGAUCUCCCUUUAGUGAGGGUUA
modifications: 2'-NH2-U, 2'-F-C
IC50 (TGFβ1 [5]): 103 nM

B6: 14F3'T (ssRNA)
RNA: GGGAGGACGAUGCGGUGGUCUCCCAAUUCUAAACUUUCUCCAUCGUAUC
modifications: 2'-F pyrimidines
Kd (PDGF-AB): 50 nM
Kd (KGF (rat) [6]): 0.0041 nM
Kd (EGF): 256 nM
Kd (bFGF): 10 nM
Ki (KGF (rat) [7]): 1.8 nM
Ki (KGF (hKGF)): 0.034 nM
Kd (TGFβ1 [8]): 98 nM

B7: lib3-13 (ssRNA)
RNA: GGGGGAGAACGCGGAUCCGAGCAAUCCCAGGCGCAUAGCUUCCGAGUAGACAGGAGGGAGGGGUGGAUGUGGCGUCUACUCGGUGUCGUGAAGCUUCGCUCUAGAUCUCCCUUUAGUGAGGGUUA
modifications: 2'-NH2 pyrimidines
IC50 (TGFβ1 [9]): 25 nM

B8: lib4-12 (ssRNA)
RNA: GGGGGAGAACGCGGAUCCUGAGAAGGACGUCGGGGUCAACGGGGUGAGGUGCAGCAGAAAGGGCCGGCACCACAUGACGUAAAAGCUUCGCUCUAGAUCUCCCUUUAGUGAGGGUUA
modifications: 2'-NH2 pyrimidines
Kd (TGFβ1 [10]): 0.4 nM
IC50 (TGFβ1 [11]): 109 nM
